This data set in a line: protein stability index of a GFP-peptide fusion (yeast GPS) (PSI 1-4); higher = more stable; sorted into four equal gates, so the index is relative within each strain. An outline of the steps: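 For each peptide, the protein stability index sums the read frequency in every gate after multiplying it by the gate number. Read frequencies came from plasmids that were PCR-amplified from each gate and Illumina-sequenced, with reads assigned to strains by barcodes. The gates were four equal bins of GFP/Cherry fluorescence ratio applied to mid-log yeast in leucine-free medium carrying a pooled library of tiled 17-residue yeast protein peptides fused downstream of GFP on a Cherry-expressing plasmid.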

In the supplement of paper PMC9732359 one finds protein stability index data, which are given here for 25 sequences.

± gives the uncertainty stated by the source.

For the sequence IELVVTEKEEAVAKAAE [RPL17A], the protein stability index is, setting by setting: (doa10∆) 3.41 ± 0.064; (pdr5∆) 3.33 ± 0.05; (san1∆) 3.27 ± 0.04; (ubr1∆) 3.25 ± 0.047.
For KQAHEKLDASKKQQAAL [YIL149C/MLP2], in that order: 3.08 ± 0.064, 2.88 ± 0.052, 3.25 ± 0.059 and 3 ± 0.057.
For SNLSQNVVPYHRNTSDY [SWI1] the same measures were 2.65 ± 0.083, 3.07 ± 0.086, 2.82 ± 0.1 and 2.92 ± 0.058.
For NYESVFTYNKFLLNQNK [YIL149C/MLP2] the same measures were 1.47 ± 0.045, 1.92 ± 0.049, 2.24 ± 0.1 and 2.26 ± 0.049.
With RMTIRTRGRSATIRETY [RRP43], the protein stability index reads like this: (doa10∆) 2.96 ± 0.057; (pdr5∆) 2.64 ± 0.061; (san1∆) 2.67 ± 0.062; (ubr1∆) 2.2 ± 0.049.
For LVEEFMLLANISVARKI [DIS3], in that order: 1.3 ± 0.062, 1.84 ± 0.092, 1.77 ± 0.16 and 2.18 ± 0.055.
For NEYYPMCEQALSALFTI [YCS4], in that order: 2.2 ± 0.062, 2.65 ± 0.088, 2.47 ± 0.077 and 2.39 ± 0.045.
For PPLTSQYSTRHDAPRGL [SWI3] the same measures were 3.13 ± 0.047, 3.19 ± 0.06, 3.14 ± 0.05 and 3.21 ± 0.045.
For IDNLESYAGISTDKLVQ [SIR2], the protein stability index is, setting by setting: (doa10∆) 2.9 ± 0.057; (pdr5∆) 2.93 ± 0.09; (san1∆) 2.94 ± 0.068; (ubr1∆) 3.08 ± 0.044.
For YLIDHIKVEGAVGNLGN [RPL22A] the same measures were 2.9 ± 0.17, 3.11 ± 0.16, 2.89 ± 0.092 and 3.21 ± 0.11.
Take LYGAPGTGKTLLAKAVA [RPT2]: the protein stability index by setting is: (doa10∆) 1.77 ± 0.11; (pdr5∆) 1.48 ± 0.12; (ubr1∆) 1.58 ± 0.1.
Take ILPDSLNLDSLLVDQKQ [SMD1]: the protein stability index is 3.29 ± 0.098 (doa10∆), 3.01 ± 0.085 (pdr5∆), 3.21 ± 0.074 (san1∆) and 3.09 ± 0.06 (ubr1∆).
Take SRTATWLKNKFAEENIT [BRR2]: the protein stability index was determined as 1.69 ± 0.052 (doa10∆), 1.73 ± 0.037 (pdr5∆), 2.23 ± 0.064 (san1∆) and 1.94 ± 0.053 (ubr1∆).
For NSYWLIILLGVLEDCRH [ITC1] the same measures were 1.42 ± 0.061, 1.53 ± 0.048, 2.44 ± 0.083 and 2.36 ± 0.057.
For LEKKFPDRHVIFLAERR [RPS7B], in that order: 2.77 ± 0.066, 2.87 ± 0.058, 2.91 ± 0.046 and 3.1 ± 0.042.
For AFPNASKKNRPTLQVGD [RRP40] the same measures were 2.09 ± 0.19, 2.75 ± 0.11, 2.78 ± 0.16 and 2.99 ± 0.17.
In the case of KTFCEDPFSDVDDDQDY [GRR1], the protein stability index was 3.46 ± 0.17 (doa10∆), 3.31 ± 0.099 (pdr5∆), 3.32 ± 0.048 (san1∆) and 3.46 ± 0.1 (ubr1∆).
For AQTEIKLFNKWSFEEVE [RPS5], in that order: 3.2 ± 0.092, 3.23 ± 0.11, 3.51 ± 0.09 and 3.22 ± 0.069.
For NKSLKYVIHGIELLSDL [LIN1] the same measures were 2.81 ± 0.093, 2.94 ± 0.096, 2.92 ± 0.075 and 2.87 ± 0.067.
Regarding AHMGVLLVLLQDVIKVL [SWP82], the protein stability index (doa10∆) turned out to be 1.51 ± 0.068, the protein stability index (pdr5∆) came to 1.58 ± 0.084, the protein stability index (san1∆) is 1.45 ± 0.1 and the protein stability index (ubr1∆) was 1.51 ± 0.057.
Consider FKVARELKTEAAVLSNL [ITC1], for which the protein stability index by setting is: (doa10∆) 2.83 ± 0.19; (pdr5∆) 2.66 ± 0.11; (san1∆) 2.9 ± 0.089; (ubr1∆) 2.86 ± 0.061.
With NLANEQPVLEKPLKKGS [SIR4], the protein stability index by setting is: (doa10∆) 2.31 ± 0.18; (pdr5∆) 2.83 ± 0.093; (san1∆) 3.08 ± 0.13; (ubr1∆) 2.32 ± 0.089.
For RMMGCVKKQKSARGIET [FAS2] the same measures were 1.59 ± 0.09, 1.4 ± 0.1, 1.36 ± 0.16 and 1.48 ± 0.064.
For YPVVEVERGRVGACTDE [RRP43], in that order: 3.24 ± 0.1, 2.8 ± 0.25, 3.16 ± 0.23 and 3.03 ± 0.091.
For SKVTKKHGAKKVAKRTK [RPL27B] the same measures were 3.42 ± 0.27, 3.02 ± 0.2, 3.27 ± 0.2 and 3.26 ± 0.22.
